B1: RAGE fusion protein TTP-4000 (Fc fusion)
chain: QNITARIGEPLVLKCKGAPKKPPQRLEWKLNTGRTEAWKVLSPQGGGPWDSVARVLPNGSLFLPAVGIQDEGIFRCQAMNRNGKETKSNYRVRVYQIPGKPEIVDSASELTAGVPNKVGTCVSEGSYPAGTLSWHLDGKPLVPNEKGVSVKEQTRRHPETGLFTLQSELMVTPARGGDPRPTFSCSFSPGLPRHRALRTAPIQPRVWEPVPLEEVQLVVEPEGGAVAPPSVFLFPPKPKDTLMISRTPEVTCVVVDVSHEDPEVKFNWYVDGVEVHNAKTKPREEQYNSTYRVVSVLTVLHQDWLNGKEYKCKVSNKALPAPIEKTISKAKGQPREPQVYTLPPSRDELTKNQVSLTCLVKGFYPSDIAVEWESNGQPENNYKTTPPVLDSDGSFFLYSKLTVDKSRWQQGNVFSCSVMHEALHNHYTQKSLSLSPGK
modifications: N-terminal residue glutamine (Q) or pyroglutamic acid (pE) or a mixture thereof; glycosylation sites at N2 and N288 (numbering of SEQ ID NO: 34 or 56); C-terminal residue of CH3 may be cleaved off
notes: Produced in CHO cells; also called TT4; four domain RAGE fusion protein
B2: RAGE fusion protein TTP-3000 (Fc fusion)
chain: QNITARIGEPLVLKCKGAPKKPPQRLEWKLNTGRTEAWKVLSPQGGGPWDSVARVLPNGSLFLPAVGIQDEGIFRCQAMNRNGKETKSNYRVRVYQIPGKPEIVDSASELTAGPSVFLFPPKPKDTLMISRTPEVTCVVVDVSHEDPEVKFNWYVDGVEVHNAKTKPREEQYNSTYRVVSVLTVLHQDWLNGKEYKCKVSNKALPAPIEKTISKAKGQPREPQVYTLPPSRDELTKNQVSLTCLVKGFYPSDIAVEWESNGQPENNYKTTPPVLDSDGSFFLYSKLTVDKSRWQQGNVFSCSVMHEALHNHYTQKSLSLSPGK
modifications: N-terminal residue may be glutamine (Q) or pyroglutamic acid (pE) or a mixture thereof; C-terminal residue may be cleaved off
notes: the N-terminus of TTP-3000 was not confirmed by experiment; also called TT3; three domain RAGE fusion protein

Key:
[1] = biological target: Fc receptor on THP-1 cells; assay: cell-based or functional assay
BSA = biological target: T1, BSA (UniProt P02769 25-607); assay: ELISA, BSA-coated Maxisorb plate, dilutions of fusion protein, anti-human IgG1 immunodetection complex, A405
T1 construct: also called BSA coating alone; BSA+wash
Procedure: Known RAGE ligands were coated onto the surface of Maxisorb plates at a concentration of 5 micrograms per well. Plates were incubated at 4° C. overnight. Following ligand incubation, plates were aspirated and a blocking buffer of 1% BSA in 50 mM imidizole buffer (pH 7.2) was added to the plates for 1 hour at room temperature. The plates were then aspirated and/or washed with wash buffer (20 mM Imidizole, 150 mM NaCl, 0.05% Tween-20, 5 mM CaCl₂ and 5 mM MgCl₂, pH 7.2). […] The RAGE fusion protein was added at increasing dilutions of the initial sample. The RAGE fusion protein was allowed to incubate with the immobilized ligand at 37° C. for one hour after which the plate was washed and assayed for binding of the RAGE fusion protein. Binding was detected by the addition of an immunodetection complex containing a monoclonal mouse anti-human IgG1 diluted 1:11,000 to a final assay concentration (FAC) of 21 ng/100 μL, a biotinylated goat anti-mouse IgG diluted 1:500, to a FAC of […], and an avidin-linked alkaline phosphatase. […] Binding of the complex to the immobilized RAGE fusion protein was quantified by measuring conversion of PNPP to para-nitrophenol (PNP) which was measured spectrophotometrically at 405 nm.

T1 sequence (P02769 25-607 limits assumed): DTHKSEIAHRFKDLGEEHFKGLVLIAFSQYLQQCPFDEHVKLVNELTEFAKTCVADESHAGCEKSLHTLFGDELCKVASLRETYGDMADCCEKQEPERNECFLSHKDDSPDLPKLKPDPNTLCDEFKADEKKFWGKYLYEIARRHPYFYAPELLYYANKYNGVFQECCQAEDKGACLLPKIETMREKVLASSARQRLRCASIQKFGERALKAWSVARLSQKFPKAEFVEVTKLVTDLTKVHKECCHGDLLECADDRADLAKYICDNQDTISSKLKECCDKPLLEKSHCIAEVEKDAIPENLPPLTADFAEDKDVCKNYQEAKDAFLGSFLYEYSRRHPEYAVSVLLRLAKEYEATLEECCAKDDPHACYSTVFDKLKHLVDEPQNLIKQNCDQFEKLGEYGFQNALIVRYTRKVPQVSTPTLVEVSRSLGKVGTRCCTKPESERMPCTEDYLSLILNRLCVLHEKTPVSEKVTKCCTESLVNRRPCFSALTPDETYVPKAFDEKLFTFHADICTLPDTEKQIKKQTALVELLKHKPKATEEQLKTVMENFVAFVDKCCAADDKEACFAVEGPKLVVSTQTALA

| Molecule | TNF-α secreted by THP-1 cells on wells coated with 10 ug/well heat aggregated protein [1] [ng/well] | binding result (BSA) |
| --- | --- | --- |
| human IgG1 (heat aggregated) (antibody) | > 40 | – |
| B1 | – | no binding |
| B2 | – | no binding |
